This is an account of results in patent US20260274928A1.

The target in the experiment is 13-strain panel of SARS-CoV-2 variant lineages (RBDs). Put plainly: SPR, Fab on captured His-AviTag RBD, single-cycle kinetics.

B1: S2V29-v37.2 Fab (Fab, V domains shown)
VH: EVQLVESGGSVVQPGRALRLSCAASGITFSSFGMYWVRQAPGKGLEWLGYIAYDGSDTYYADSVKGRFTISRDNSKNTLYLQMNSLRIEDTAVYYCAKDYYPLLSYYYGLDVWGQGTTVTVSS
VL: QSVLTQPRSVSGSPGQSVTISCTGTSSDVGAYNYVSWYQQHPGKAPKFMIYDVDQRPSGVPDRFSGSKSGNTASLIISGLQAEDEADYYCSSYAGSYIWVFGGGTQLTVL
Broadly, the Kd is the equilibrium constant for the complex coming apart. Low readings indicate tighter binding, high ones weaker binding. B1 registered a Kd of 50 to 5000 pM and a median KD of 260 pM.
